According to patent US20240189458A1, “METHODS FOR IN VIVO DELIVERY OF MICROBES TO HUMAN MICROENVIRONMENTS” (priority 2021, published 2024):
Ends that are not written are not given here.

Legend:
Format in all cases: cell-based
[1] = biological target: T1, KB1 PhoQ H277A (Salmonella typhimurium, UniProt P0DM80, H277A); test: Negative control strains (S. Typhimurium lacking phoQ; KB1 PhoQ H277A)
T1 construct: expressed in transfected cells; host or cells: E. coli KB1 derivative (BW30007 background)
T1 sequence (P0DM80 1-487 H277A): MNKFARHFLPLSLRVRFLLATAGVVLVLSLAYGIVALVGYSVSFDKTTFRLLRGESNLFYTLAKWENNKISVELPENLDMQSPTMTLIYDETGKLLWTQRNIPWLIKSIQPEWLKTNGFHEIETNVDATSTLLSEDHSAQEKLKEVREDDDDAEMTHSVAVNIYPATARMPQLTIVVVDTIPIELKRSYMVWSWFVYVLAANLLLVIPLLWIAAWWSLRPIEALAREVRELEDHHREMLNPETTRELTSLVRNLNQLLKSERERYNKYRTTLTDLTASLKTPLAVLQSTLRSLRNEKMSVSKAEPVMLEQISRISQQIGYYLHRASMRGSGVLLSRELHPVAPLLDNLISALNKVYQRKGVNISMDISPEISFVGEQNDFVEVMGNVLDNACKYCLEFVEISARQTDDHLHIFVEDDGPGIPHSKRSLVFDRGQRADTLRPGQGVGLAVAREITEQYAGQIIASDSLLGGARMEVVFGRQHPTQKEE
Description: This plasmid was transformed into both S. Typhimurium and KB1 to measure PhoPQ activation by the positive control AMP LL-37. […] LL-37 response was also measured in two negative control strains: an S. Typhimurium strain lacking phoQ and a KB1 derivative in which the catalytic histidine of PhoQ was mutated to an alanine (KB1 PhoQ H277A).

[2] = biological target: T2, S. Typhimurium PhoPQ (Salmonella typhimurium, UniProt P0DM80); test: SLAY-TCS: surface-displayed peptides in KB1, single strains, flow cytometry; settings: KB1, IPTG-induced display
T2 construct: expressed in transfected cells; host or cells: E. coli BW30007 (lacks E. coli phoPQ) with the cassette integrated in the genome = strain KB1
T2 sequence (P0DM80 whole entry): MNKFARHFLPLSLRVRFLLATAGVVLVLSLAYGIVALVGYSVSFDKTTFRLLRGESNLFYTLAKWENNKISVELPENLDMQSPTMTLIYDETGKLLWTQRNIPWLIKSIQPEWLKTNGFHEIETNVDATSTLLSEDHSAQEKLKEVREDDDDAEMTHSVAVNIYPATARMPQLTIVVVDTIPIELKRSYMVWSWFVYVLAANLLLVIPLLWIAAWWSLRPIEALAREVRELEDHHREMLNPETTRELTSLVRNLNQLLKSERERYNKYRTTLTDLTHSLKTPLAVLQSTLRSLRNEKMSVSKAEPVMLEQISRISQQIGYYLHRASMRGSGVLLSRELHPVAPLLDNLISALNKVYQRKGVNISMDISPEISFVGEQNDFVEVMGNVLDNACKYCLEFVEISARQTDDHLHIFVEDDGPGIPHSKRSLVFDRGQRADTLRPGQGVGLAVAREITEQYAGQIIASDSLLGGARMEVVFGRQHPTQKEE
Excerpt: In SLAY, peptides of interest are expressed at the C-terminus of a fusion protein consisting of the Lpp signal peptide, an OmpA transmembrane domain, and a flexible tether. […] In addition to PvirK-mNG, each of these plasmids encodes a SLAY fusion protein under the control of an isopropyl-β-D-thiogalactoside (IPTG)-inducible promoter (Ptac) (FIG. 25). Ptac is tightly repressed, to avoid potential toxicity arising from leaky AMP expression in the absence of inducer. […] Finally, a no-peptide control plasmid encoding a stop codon was constructed instead of a peptide following the OmpA transmembrane domain.

[3] = biological target: T2, S. Typhimurium PhoPQ; test: SLAY-TCS sort-seq screen of KB1 human AMP library; settings: for sort-seq fold activation of PhoPQ relative to no-peptide control: KB1 library, 500 μM IPTG
Excerpt: PhoQ senses diverse human AMPs: To characterize the response of PhoQ to most human AMPs, 133 human AMPs in the Antimicrobial Peptide Database (APD3) were first identified). From this set, 16 (12%) were excluded exceeding 104 amino acids in length due to size restrictions of commercial oligonucleotide synthesis. The remaining set of 117 AMPs vary in charge, length, hydrophobicity, and secondary structure, and comprise 11 clusters of high sequence similarity. These clusters include families of mature AMPs processed from a single precursor peptide (e.g. products of cathelicidin, human defensin 5, and β-amyloid) and peptides with high sequence similarity that are produced from distinct genes (e.g. CXCL1, CXCL2, and CXCL3).
This plasmid library was transformed into KB1. Using Illumina NGS, it was validated that sequences encoding all 117 human AMPs, along with no-peptide controls, are present in the KB1 human AMP library. Variants of human AMPs were also identified that likely resulted from errors in oligo synthesis or plasmid assembly. As expected, these variants generally had lower representation in the library than the human AMPs.
Next, sort-seq was utilized to characterize the effect of each peptide on PhoPQ activity. First, the KB1 human AMP library was grown in the presence of 500 μM IPTG, which induces sufficient expression of positive control AMPs to strongly activate PhoPQ (FIG. 25D). Then, FACS was used to sort these bacteria into eight logarithmically-spaced mNG fluorescence bins (FIG. 26B). The bins were designed to span the fluorescence distributions of negative (no peptide) and positive (C18G) PhoQ activity control strains measured on the same day. […] Next, Illumina NGS was used to sequence the peptide-encoding DNA regions from bacteria in each bin and estimated the mean mNG fluorescence level of each strain using the relative abundances of peptide-encoding sequences across fluorescence bins. These estimated fluorescence values were divided by the estimated mean fluorescence of the no-peptide control to calculate the fold activation of PhoPQ in response to each peptide in the library.

| Substance | PhoPQ activation by surface-displayed peptide [2] | human AMPs sensed by PhoPQ [3] | sort-seq fold activation of PhoPQ relative to no-peptide control [3] | further results |
| --- | --- | --- | --- | --- |
| protegrin-1: positive control AMP containing disulfide bonds (RGGRLCYCRRRFCVCVGR; disulfide (positions not given here); ends not checked; also: disulfide bonds, pairing not given here; UniProt P32194 131-148, looked up) | activates PhoPQ | – | – | PhoPQ activation by surface-displayed AMPs in PhoQ H277A strain ([1]; KB1 PhoQ H277A): slight increase in mNG fluorescence |
| CCL20 | – | senses | – | – |
| NPY: neuropeptide Y | – | senses | – | – |
| LL-37 | – | – | 5.2 fold | LL-37 response in negative control strains ([1]; S. Typhimurium lacking phoQ and KB1 PhoQ H277A): Neither negative control strain responds |
| HNP-1: human defensin, negative control peptide | do not activate PhoPQ | – | does not activate mNG expression | – |
| hBD3: human β-defensin 3 (GIINTLQKYYCRVRGGRCAVLSCLPKEEQIGKCSTRGRKCCRRKK; ends and bridges not checked; cysteine pairing not given here; UniProt P81534 23-67, looked up) | – | senses | – | – |
